The target of assay [1] is human LAG-3 expressed on cells (human) (UniProt P18627).
Assay [2] addresses Recombinant human LAG-3 protein (Fc Chimera), R&D 2319-L3 (human) (UniProt P18627). Briefly: flow cytometry competition, huLAG-3-Fc on HLA-DR expressing cells, VHH at 500 nM. (A flow cytometer gives signals particle by particle.)

Here are results for two molecules from patent US20240067722A1.

B1: huLAG-3 specific VHH 3150 (VHH)
VHH: QVQLQESGGGLVQAGGSLRLSCAASGITFDDYAIGWFRQAPGKEREGVSCIRSSDDSTYYADSVKGRFTISSDNAKNTVYLQMNSLKPEDTAVYYCARDVYSDCKGPYDSWGRGTQVTVSS
On to B1, for which the GFP expression by 2D3 cells (measure of TCR signaling) in assay [1] stood at 2 fold. The percent block of the LAG-3/HLA-DR interaction in assay [2] is 75%.

B2: huLAG-3 specific VHH 3185 (VHH)
VHH: QVQLQESGGGLVQPGGSLKLSCAASGFTWDYSAIGWFRQAPGKEREGVSCITSSGKDTQYLDSVKGRFTISRDNTKNTVYLQMNNLKPEDTAVYYCAAPGRVRGSCNGRWDYWGQGTQVTVSS
Turning to B2, in assay [2], the percent block of the LAG-3/HLA-DR interaction turned out to be 75%.
